According to patent publication US6566080 (NEW ENGLAND MEDICAL CENTER HOSPITALS, dated 2003):
Ends that are not written are not given here.

B1: sulfated CCK-8 (CCK-8s) (peptide, UniProt P06307 96-103, looked up)
peptide: DYMGWMDF
modifications: not fully specified (residue 2, C-terminus)
B2: Gastrin I (unsulphated gastrin-17) (peptide, UniProt P01350 76-92, looked up)
peptide: QGPWLEEEEEAYGWMDF
modifications: not fully specified (residue 1, C-terminus)
notes: domain: gastrin-17

Assays:
[1] = biological target: T1, wild-type rat CCK-A receptor (rat, UniProt P30551 1-444); assay: cell-based or functional assay
T1 sequence: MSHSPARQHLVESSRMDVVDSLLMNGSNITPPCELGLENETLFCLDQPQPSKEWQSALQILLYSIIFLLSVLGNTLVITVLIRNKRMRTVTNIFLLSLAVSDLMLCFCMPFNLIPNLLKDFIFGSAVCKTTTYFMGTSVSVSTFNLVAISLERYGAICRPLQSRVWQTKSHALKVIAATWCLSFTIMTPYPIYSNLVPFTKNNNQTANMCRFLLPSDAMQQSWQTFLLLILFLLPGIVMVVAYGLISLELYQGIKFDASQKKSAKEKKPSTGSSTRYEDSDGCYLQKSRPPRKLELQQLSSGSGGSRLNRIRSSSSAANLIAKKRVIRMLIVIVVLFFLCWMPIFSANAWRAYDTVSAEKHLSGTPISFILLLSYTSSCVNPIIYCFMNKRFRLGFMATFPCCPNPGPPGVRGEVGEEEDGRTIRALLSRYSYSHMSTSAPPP

[2] = biological target: T2, constitutively active human CCK-B/gastrin receptor mutant MH162 (^325L→E) (human, UniProt P32239 1-447); assay: ^125I-CCK-8 competition binding; Ki at wild-type receptor over Ki at MH162
T2 construct: Transiently expressed in COS-7 cells; also called MH162 Mutant; ^325L→E mutant
T2 sequence: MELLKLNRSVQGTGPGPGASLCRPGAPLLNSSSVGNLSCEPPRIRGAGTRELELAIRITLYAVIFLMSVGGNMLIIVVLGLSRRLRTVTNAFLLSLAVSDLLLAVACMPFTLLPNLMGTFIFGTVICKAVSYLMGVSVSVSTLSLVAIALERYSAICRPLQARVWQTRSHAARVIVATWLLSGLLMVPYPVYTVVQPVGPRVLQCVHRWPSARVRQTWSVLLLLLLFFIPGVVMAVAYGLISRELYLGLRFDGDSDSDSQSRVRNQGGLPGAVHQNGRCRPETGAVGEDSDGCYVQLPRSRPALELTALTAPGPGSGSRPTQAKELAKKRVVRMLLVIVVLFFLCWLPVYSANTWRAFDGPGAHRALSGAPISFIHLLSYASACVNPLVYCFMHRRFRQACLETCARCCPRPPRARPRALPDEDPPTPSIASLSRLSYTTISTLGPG
Experimental: (§1) COS-7 cells (1.5 ×10^6) were plated in 10-cm culture dishes (Nunc) and grown in Dulbecco's modified Eagle's medium containing 10% fetal calf serum in a 5% CO_2, 95% air incubator at 37° C. After an overnight incubation, cells were transfected (Pacholczyk et al., *Nature* 350:350–354, 1991) with 5–7 μg of a pcDNA I expression vector containing hCCKB (HCCKB-pcDNA I). Twenty-four hours after transfection cells were split into 24-well dishes (2 ×10^4 cells/well) (Costar). After an additional 24 hours, competition binding experiments were performed in Hank's buffer supplemented with 25 mM phenylmethylsulfonyl fluoride (PMSF). […] Equilibrium binding occurred after incubation for 80 min. at 37° C. Cell monolayers were then washed three times, hydrolyzed in 1 N NaOH, and the amount of radioactivity to the receptor was quantified. […] All binding experiments were repeated three to five times.
(§2) The competition data were analyzed using computer software which is specifically designed for the purpose of radioligand binding assays (Inplot 4.0, GraphPad, San Diego, Calif.). Analyses of competition and saturation binding data can also be performed using computerized non-linear curve fitting (McPherson, G. A., *J Pharmacol Methods*, 14:213–28, 1985).

[3] = biological target: T3, wild-type human CCK-B/gastrin receptor (human, UniProt P32239 1-447); assay: ^125I-CCK-8 competition binding on COS-7 cells transfected with hCCK-B-pcDNAI
T3 construct: Expressed from hCCKB-pcDNA I in transiently transfected COS-7 cells (also in stably transfected CHO cells); also called hCCK-B; human brain CCK-B receptor
T3 sequence: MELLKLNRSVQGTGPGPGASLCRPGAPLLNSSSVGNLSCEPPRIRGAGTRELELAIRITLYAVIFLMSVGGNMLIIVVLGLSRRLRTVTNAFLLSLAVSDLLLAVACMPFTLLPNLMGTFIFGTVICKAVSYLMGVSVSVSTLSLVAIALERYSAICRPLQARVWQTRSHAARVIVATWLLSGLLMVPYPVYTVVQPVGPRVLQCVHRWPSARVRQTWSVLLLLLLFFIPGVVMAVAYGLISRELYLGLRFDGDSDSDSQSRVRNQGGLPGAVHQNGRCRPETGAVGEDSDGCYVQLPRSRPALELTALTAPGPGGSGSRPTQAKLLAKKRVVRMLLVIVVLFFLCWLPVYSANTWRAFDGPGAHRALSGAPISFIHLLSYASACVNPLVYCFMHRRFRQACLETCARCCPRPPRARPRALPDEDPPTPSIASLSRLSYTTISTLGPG
Experimental: as §1, §2

[4] = biological target: T2, constitutively active human …; assay: cell-based or functional assay
[5] = biological target: T3, wild-type human CCK-B/gastrin receptor; assay: cell-based or functional assay
[6] = biological target: T2, constitutively active human …; assay: ^125I-CCK-8 competition binding on transfected COS-7 cells
[7] = biological target: T3, wild-type human CCK-B/gastrin receptor; assay: as above

Binder	CCK-8s stimulated (% human basal) inositol phosphate production [1] [% human basal]	Ratio (Wild-type/Mutant) of Ki [2]	IC50 [3] [nM]	Signaling potencies of tested ligands, IC50 [4] [nm]	Signaling potencies, Ratio (Wild-type/Mutant) [4]	Signaling potencies of tested ligands, IC50 [5] [nm]	Ki [6] [nM]	Ki [7] [nM]
B1	684	–	–	–	–	–	–	–
B2	–	1.69	0.94	0.2	1.2	0.24	0.8	1.35
